Earlier results, collected in PMC3865722.
Read-outs that look alike come from different tables or passages of the source.

Legend:
SRSF1 (Homo sapiens) [1] = molecular target: SRSF1 (Homo sapiens) (UniProt Q07955)
SRSF1 (Homo sapiens) [2] = molecular target: SRSF1 (Homo sapiens) (UniProt Q07955); remark: listed apart in the source

Chain of SRSF1 (Homo sapiens) (Q07955 2-248): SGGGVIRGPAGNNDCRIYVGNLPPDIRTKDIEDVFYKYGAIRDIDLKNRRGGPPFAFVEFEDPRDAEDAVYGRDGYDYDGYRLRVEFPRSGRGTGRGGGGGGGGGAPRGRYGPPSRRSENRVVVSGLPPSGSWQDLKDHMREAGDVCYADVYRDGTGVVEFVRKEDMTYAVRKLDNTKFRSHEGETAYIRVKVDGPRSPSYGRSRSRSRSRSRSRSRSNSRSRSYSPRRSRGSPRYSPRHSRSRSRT
Chain of CLK1 (P49759 whole entry): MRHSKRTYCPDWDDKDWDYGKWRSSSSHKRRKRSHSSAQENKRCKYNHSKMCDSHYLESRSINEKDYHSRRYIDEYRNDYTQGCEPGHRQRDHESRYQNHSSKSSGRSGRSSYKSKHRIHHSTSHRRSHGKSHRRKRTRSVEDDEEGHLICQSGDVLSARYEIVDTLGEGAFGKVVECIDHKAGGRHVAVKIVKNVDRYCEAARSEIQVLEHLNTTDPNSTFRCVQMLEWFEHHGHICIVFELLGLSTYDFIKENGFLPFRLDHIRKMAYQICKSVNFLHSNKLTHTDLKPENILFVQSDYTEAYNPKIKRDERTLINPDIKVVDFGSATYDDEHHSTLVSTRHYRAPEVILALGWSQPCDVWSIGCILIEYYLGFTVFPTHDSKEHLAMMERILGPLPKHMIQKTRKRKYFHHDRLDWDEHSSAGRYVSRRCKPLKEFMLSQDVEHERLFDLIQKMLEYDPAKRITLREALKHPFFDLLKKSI

| Kd (SRSF1 (Homo sapiens) [1]) [nM] | Kd (SRSF1 (Homo sapiens) [2]) [nM] | Substance |
| --- | --- | --- |
| < 100 | – | CLK1 (from UniProt P49759) |
| – | < 100 | SRPK1 (from UniProt Q96SB4) |
